± gives the uncertainty stated by the source.

The data set can be described thus: abundance fitness (aPCA) (normalised: wild type 0, dead -1); higher = more abundant; growth selection in yeast, the domain comes from the species named. The conditions noted are these: Homo sapiens.
In the case of “Transcriptional activator Myb K143A, P10242”, the abundance fitness was 0.049 ± 0.15.

On to “Transcriptional activator Myb K143D, P10242”, for which the abundance fitness is -0.192 ± 0.19.

For “Transcriptional activator Myb K143E, P10242”, the abundance fitness is -0.144 ± 0.17.

As to “Transcriptional activator Myb K143F, P10242”, the abundance fitness was -0.235 ± 0.18.

In turn, “Transcriptional activator Myb K143G, P10242” gave an abundance fitness of -0.06 ± 0.059.

“Transcriptional activator Myb K143I, P10242” came in with an abundance fitness of -0.233 ± 0.14.

“Transcriptional activator Myb K143L, P10242”: the abundance fitness is -0.221 ± 0.16.

Regarding “Transcriptional activator Myb K143M, P10242”, the abundance fitness was -0.031 ± 0.16.

Turning to “Transcriptional activator Myb K143P, P10242”, the abundance fitness is -0.406 ± 0.49.

Turning to “Transcriptional activator Myb K143Q, P10242”, the abundance fitness was -0.961 ± 0.36.

In turn, “Transcriptional activator Myb K143R, P10242” had an abundance fitness of -0.228 ± 0.12.

Consider “Transcriptional activator Myb K143S, P10242”, for which the abundance fitness was -0.245 ± 0.11.

In the case of “Transcriptional activator Myb K143T, P10242”, the abundance fitness was -0.118 ± 0.11.

“Transcriptional activator Myb K143V, P10242”: the abundance fitness is -0.13 ± 0.087.

Take “Transcriptional activator Myb K143W, P10242”: the abundance fitness is -0.535 ± 0.076.

“Transcriptional activator Myb K143Y, P10242” registered an abundance fitness of -0.201 ± 0.16.

Consider “Transcriptional activator Myb K144A, P10242”, for which the abundance fitness was -0.202 ± 0.099.

Regarding “Transcriptional activator Myb K144C, P10242”, the abundance fitness is -0.095 ± 0.12.

The substance “Transcriptional activator Myb K144D, P10242” displayed an abundance fitness of 0.06 ± 0.14.

The substance “Transcriptional activator Myb K144E, P10242” came in with an abundance fitness of -0.114 ± 0.14.

“Transcriptional activator Myb K144F, P10242” returned an abundance fitness of -0.285 ± 0.16.

With “Transcriptional activator Myb K144G, P10242”, the abundance fitness is -0.042 ± 0.059.

For the substance “Transcriptional activator Myb K144H, P10242”, the abundance fitness was -0.232 ± 0.12.

As to “Transcriptional activator Myb K144I, P10242”, the abundance fitness is -0.206 ± 0.22.

As for “Transcriptional activator Myb K144L, P10242”, the abundance fitness was -0.101 ± 0.084.

Consider “Transcriptional activator Myb K144M, P10242”, for which the abundance fitness is 0.028 ± 0.1.

On to “Transcriptional activator Myb K144N, P10242”, for which the abundance fitness stood at 0.073 ± 0.11.

With “Transcriptional activator Myb K144P, P10242”, the abundance fitness is -0.269 ± 0.11.

Consider “Transcriptional activator Myb K144Q, P10242”, for which the abundance fitness was -0.015 ± 0.1.

Regarding “Transcriptional activator Myb K144R, P10242”, the abundance fitness was -0.078 ± 0.072.

Consider “Transcriptional activator Myb K144S, P10242”, for which the abundance fitness turned out to be 0.067 ± 0.085.

“Transcriptional activator Myb K144T, P10242” gave an abundance fitness of 0.101 ± 0.086.

For the substance “Transcriptional activator Myb K144V, P10242”, the abundance fitness is -0.042 ± 0.085.

“Transcriptional activator Myb K144W, P10242” came in with an abundance fitness of -0.201 ± 0.089.

In turn, “Transcriptional activator Myb K144Y, P10242” came in with an abundance fitness of 0.08 ± 0.16.

In turn, “Transcriptional activator Myb K171A, P10242” returned an abundance fitness of -0.017 ± 0.093.

“Transcriptional activator Myb K171C, P10242” had an abundance fitness of -0.238 ± 0.12.

With “Transcriptional activator Myb K171D, P10242”, the abundance fitness is -0.234 ± 0.14.

In the case of “Transcriptional activator Myb K171E, P10242”, the abundance fitness is -0.017 ± 0.064.

“Transcriptional activator Myb K171F, P10242”: the abundance fitness is -0.638 ± 0.22.

In turn, “Transcriptional activator Myb K171G, P10242” returned an abundance fitness of -0.336 ± 0.061.

“Transcriptional activator Myb K171H, P10242” showed an abundance fitness of -0.207 ± 0.28.

“Transcriptional activator Myb K171I, P10242” showed an abundance fitness of -0.141 ± 0.12.

Regarding “Transcriptional activator Myb K171M, P10242”, the abundance fitness was 0 ± 0.08.

On to “Transcriptional activator Myb K171P, P10242”, for which the abundance fitness is -0.354 ± 0.14.

Take “Transcriptional activator Myb K171Q, P10242”: the abundance fitness was -0.084 ± 0.1.

For the substance “Transcriptional activator Myb K171S, P10242”, the abundance fitness turned out to be 0.016 ± 0.071.

“Transcriptional activator Myb K171T, P10242”: the abundance fitness was -0.148 ± 0.2.

Substance “Transcriptional activator Myb K171V, P10242” displayed an abundance fitness of -0.19 ± 0.088.

With “Transcriptional activator Myb K171W, P10242”, the abundance fitness is -0.598 ± 0.091.

“Transcriptional activator Myb K182C, P10242” showed an abundance fitness of -0.167 ± 0.11.

In the case of “Transcriptional activator Myb K182D, P10242”, the abundance fitness is -0.548 ± 0.1.

The substance “Transcriptional activator Myb K182E, P10242” came in with an abundance fitness of 0.01 ± 0.062.

Take “Transcriptional activator Myb K182F, P10242”: the abundance fitness was -0.383 ± 0.16.

“Transcriptional activator Myb K182H, P10242” returned an abundance fitness of -0.299 ± 0.16.

“Transcriptional activator Myb K182I, P10242” had an abundance fitness of -0.181 ± 0.14.

Regarding “Transcriptional activator Myb K182L, P10242”, the abundance fitness is -0.051 ± 0.068.

Substance “Transcriptional activator Myb K182M, P10242” showed an abundance fitness of 0.037 ± 0.085.

In turn, “Transcriptional activator Myb K182N, P10242” displayed an abundance fitness of -0.177 ± 0.15.

“Transcriptional activator Myb K182P, P10242” showed an abundance fitness of -0.678 ± 0.15.

For the substance “Transcriptional activator Myb K182Q, P10242”, the abundance fitness was 0.136 ± 0.12.

“Transcriptional activator Myb K182R, P10242” registered an abundance fitness of 0.068 ± 0.056.

“Transcriptional activator Myb K182S, P10242” gave an abundance fitness of -0.161 ± 0.069.

In turn, “Transcriptional activator Myb K182T, P10242” yielded an abundance fitness of -0.696 ± 0.14.

Substance “Transcriptional activator Myb K182V, P10242” registered an abundance fitness of -0.176 ± 0.058.

“Transcriptional activator Myb K182W, P10242”: the abundance fitness was -0.184 ± 0.076.

Substance “Transcriptional activator Myb K182Y, P10242” gave an abundance fitness of -0.253 ± 0.17.

On to “Transcriptional activator Myb K192A, P10242”, for which the abundance fitness was -0.247 ± 0.12.

Consider “Transcriptional activator Myb K192C, P10242”, for which the abundance fitness is -0.024 ± 0.12.

For the substance “Transcriptional activator Myb K192D, P10242”, the abundance fitness is -0.448 ± 0.21.

In the case of “Transcriptional activator Myb K192F, P10242”, the abundance fitness is -0.301 ± 0.29.

“Transcriptional activator Myb K192G, P10242” showed an abundance fitness of -0.219 ± 0.053.

Take “Transcriptional activator Myb K192H, P10242”: the abundance fitness is -0.156 ± 0.2.

Substance “Transcriptional activator Myb K192I, P10242” gave an abundance fitness of -0.063 ± 0.14.

As to “Transcriptional activator Myb K192L, P10242”, the abundance fitness worked out at 0.004 ± 0.095.

For the substance “Transcriptional activator Myb K192M, P10242”, the abundance fitness is -0.122 ± 0.16.

Take “Transcriptional activator Myb K192N, P10242”: the abundance fitness was -0.162 ± 0.43.

“Transcriptional activator Myb K192P, P10242” returned an abundance fitness of -0.082 ± 0.12.

For the substance “Transcriptional activator Myb K192Q, P10242”, the abundance fitness was -0.337 ± 0.16.

“Transcriptional activator Myb K192R, P10242” displayed an abundance fitness of -0.04 ± 0.064.

For “Transcriptional activator Myb K192S, P10242”, the abundance fitness is -0.074 ± 0.093.

“Transcriptional activator Myb K192T, P10242”: the abundance fitness is -0.232 ± 0.13.

The substance “Transcriptional activator Myb K192V, P10242” gave an abundance fitness of -0.207 ± 0.074.

In the case of “Transcriptional activator Myb K192W, P10242”, the abundance fitness was -0.334 ± 0.11.

“Transcriptional activator Myb K192Y, P10242” showed an abundance fitness of -0.535 ± 0.17.

The substance “Transcriptional activator Myb K204A, P10242” had an abundance fitness of 0.054 ± 0.091.

As to “Transcriptional activator Myb K204C, P10242”, the abundance fitness is -0.317 ± 0.12.

The substance “Transcriptional activator Myb K204D, P10242” showed an abundance fitness of -0.164 ± 0.15.

Take “Transcriptional activator Myb K204E, P10242”: the abundance fitness is -0.062 ± 0.11.

“Transcriptional activator Myb K204F, P10242” showed an abundance fitness of -0.097 ± 0.19.

“Transcriptional activator Myb K204G, P10242” yielded an abundance fitness of -0.166 ± 0.11.

“Transcriptional activator Myb K204H, P10242” yielded an abundance fitness of -0.401 ± 0.39.

“Transcriptional activator Myb K204I, P10242” had an abundance fitness of -0.055 ± 0.16.

The substance “Transcriptional activator Myb K204L, P10242” registered an abundance fitness of -0.07 ± 0.18.

In turn, “Transcriptional activator Myb K204M, P10242” showed an abundance fitness of -0.111 ± 0.11.
